Measured values published in PMC1995591 (Molecular Microbiology, 2007).

T1: His6-KstRMtb (KstR) (Mycobacterium tuberculosis H37Rv, UniProt P96856 22-220)
T1 sequence: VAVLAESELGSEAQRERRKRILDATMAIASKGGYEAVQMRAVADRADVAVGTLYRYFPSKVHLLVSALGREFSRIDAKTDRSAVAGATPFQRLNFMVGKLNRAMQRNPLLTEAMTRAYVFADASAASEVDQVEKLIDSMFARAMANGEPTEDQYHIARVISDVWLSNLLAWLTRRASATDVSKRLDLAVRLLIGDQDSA

B1: Rv0551c/Rv0552 probe (dsDNA)
DNA 1: TCCAAATTGCAACACGTTCTAGTCTTGCC
DNA 2: GGCAAGACTAGAACGTGTTGCAATTTGGA
B2: Rv3503c/Rv3504 probe (dsDNA)
DNA 1: CAGAGACTAGAACGTGTTACAACCGGGAA
DNA 2: TTCCCGGTTGTAACACGTTCTAGTCTCTG
B3: Rv1894c/Rv1895 probe (dsDNA)
DNA 1: ATAGAACTGAAACGTGTTCTAGTTTAGTA
DNA 2: TACTAAACTAGAACACGTTTCAGTTCTAT
B4: Rv3531c/Rv3532 probe (dsDNA)
DNA 1: TCGACACTAGAACGTGTTCCTGTTTTGCG
DNA 2: CGCAAAACAGGAACACGTTCTAGTGTCGA
B5: Rv0953c/Rv0954 probe (dsDNA)
DNA 1: GCGCAGGTGGAACACGTTCTAATTCGGTG
DNA 2: CACCGAATTAGAACGTGTTCCACCTGCGC
B6: Rv3545c/Rv3546 probe (dsDNA)
DNA 1: ATAGTAATGAAACGTGTTCTAGCCTGGCC
DNA 2: GGCCAGGCTAGAACACGTTTCATTACTAT
B7: Rv3570c/Rv3571 probe, motif 2 (dsDNA)
DNA 1: TCATAACTAGAACATGTTACAGAAAACCC
DNA 2: GGGTTTTCTGTAACATGTTCTAGTTATGA
B8: Rv0223c probe (dsDNA)
DNA 1: GCGAAACGAGAACGTGTTCCATTATTAGG
DNA 2: CCTAATAATGGAACACGTTCTCGTTTCGC
B9: Rv0940c probe (dsDNA)
DNA 1: GTCAAATTAGAACACGTTCTAATCTCGTT
DNA 2: AACGAGATTAGAACGTGTTCTAATTTGAC
B10: Rv3515c/Rv3516 probe (Table 2 prints Rv3515c/Rv3532) (dsDNA)
DNA 1: ACCAAACTAGAACGTGTTACATTTCTTGA
DNA 2: TCAAGAAATGTAACACGTTCTAGTTTGGT
B11: Rv3573c/Rv3574 (kstR) 29 bp probe (dsDNA)
DNA 1: TGCCCACTAGAACGTGTTCTAATAGTGCT
DNA 2: AGCACTATTAGAACACGTTCTAGTGGGCA
B12: Rv3570c/Rv3571 probe, motif 1 (dsDNA)
DNA 1: GAAAGACTAGAACACGTTCCGATTTGTGT
DNA 2: ACACAAATCGGAACGTGTTCTAGTCTTTC
B13: Rv3520c/Rv3521 probe (dsDNA)
DNA 1: TGTCGAGTAGAACAGGTTCTAACAACGGT
DNA 2: ACCGTTGTTAGAACCTGTTCTACTCGACA
B14: unlabelled kstR 29 bp probe (dsDNA)
DNA 1: TGCCCACTAGAACGTGTTCTAATAGTGCT
DNA 2: AGCACTATTAGAACACGTTCTAGTGGGCA
B15: His6-tagged KstRMtb (Mycobacterium tuberculosis TetR-type regulator Rv3574) (natural protein)
chain: MSSANTNTSSAPDAPPRAVMKVAVLAESELGSEAQRERRKRILDATMAIASKGGYEAVQMRAVADRADVAVGTLYRYFPSKVHLLVSALGREFSRIDAKTDRSAVAGATPFQRLNFMVGKLNRAMQRNPLLTEAMTRAYVFADASAASEVDQVEKLIDSMFARAMANGEPTEDQYHIARVISDVWLSNLLAWLTRRASATDVSKRLDLAVRLLIGDQDSA

biological target: T1, His6-KstRMtb (KstR); experiment: EMSA

Does B1 bind?
Result: binds

Does B2 bind?
Result: binds

Does B3 bind?
Result: binds

Does B4 bind?
Result: binds

Does B5 bind?
Result: binds

Does B6 bind?
Result: binds

Does B7 bind?
Result: binds

Does B8 bind?
Result: no binding

Does B9 bind?
Result: binds

Does B10 bind?
Result: binds

Does B11 bind?
Result: binds

Does B12 bind?
Result: binds

Does B13 bind?
Result: binds

biological target: T1, His6-KstRMtb (KstR); experiment: competition

Does B14 bind?
Result: binds

Biological target: the molecule itself
Experiment: SEC

Which “stoichiometry N” value does the source give for B15 here?
The value was 2.
